According to patent publication US8283445B2, “Extracellular-signal-regulated-kinase (ERK) heteropolyligand polypeptide” (Intrexon Corporation, priority 2006, dated 2012):

B1: SEQ ID NO:1: ERK heteropolyligand A-S1-B-S2-C-S3-D-S4-E-S5-F of SEQ ID NOS:91, 97, 28, 29, 30, 31, Xaa alanine, with spacers (protein)
chain: MPKKKPTPIQLNPAAKGRKPRDLELPAAAATGPLAPGPFGAGAYSPTAPTYSPTAPKKKGGGGAPRAPGGRRAGAGRRPRAPAKLSFFFPS
modifications: Synthetic polyligand
B2: NLS: SEQ ID NO:1 fused to a nuclear localization signal and c-Myc epitope tag (protein)
chain: B1 chain
modifications: left off: small tags and cut ends
B3: PLA-localized SEQ ID NO:1: SEQ ID NO:1 targeted to the plasma membrane (protein)
chain: B1 chain
modifications: left off: small tags and cut ends
B4: NXP: SEQ ID NO:1 fused to a nuclear-exclusion localization signal and c-Myc epitope tag (protein)
chain: B1 chain
modifications: left off: small tags and cut ends
B5: SEQ ID NO:5: ERK heteropolyligand of SEQ ID NOS:32, 98, 33, 34, 35, 100, 36, 37, 107, Xaa alanine, with spacers (protein)
chain: PPLMAPPFYPQKGRKPRDLELPLAAAAKQAEAVTAPRGAGAKNIVTPRAPPPSQGKGGGGTLSPIAPRAPAKLSFQFPSSAGPGAEFLKPIESSILAQRRVRKLPSTAGAGKRELVEPLAPSGEAPNQALLRAAGGYSPTAPTYSPTAPKKKGGAATPTAAHSGSHLFGFP
modifications: Synthetic polyligand

Columns and labels:
NIH3T3 cells [1] = assay: G418-resistant colony formation (cell proliferation) in NIH3T3 cells; format: cell-based, mouse
MEK = conditions: cited from earlier work
ERK = assay: Localized inhibition of ERK-mediated myelin basic protein phosphorylation in Cos7 cells; format: cell-based
From the text: A constitutively-active form of the RasV12 protein, a known activator of MAPK signaling pathways, was used to activate ERK kinase in defined regions of Cos7 cells. Several fusion proteins as described by Matallanas et al. Mol Cell Biol. 2006 January; 26(1):100-116 (hereby incorporated by reference), were used to activate ERK kinase in specific subcellular compartments. The constitutively-active RasV12 protein promoted cell-wide activation of ERK. The Lck-RasV 12 fusion protein activated ERK-protein associated with lipid rafts in or near the plasma membrane. […] Lane 1: control. Lane 2: ERK activity in cells expressing active Lck-RasV12 fusion protein. Lane 3: ERK activity in cells co-expressing active Lck-RasV12 fusion protein, and ERK decoy protein (ER localization signal, a c-Myc epitope tag, and the ERK polyligand of SEQ ID NO:1). Lane 4: ERK activity in cells co-expressing active Lck-RasV12 fusion protein, and CAT fragment-containing ER localization control protein. Lane 5: ERK activity in cells expressing active M1-RasV12 fusion protein. Lane 6: ERK activity in cells co-expressing active M1-RasV12 fusion protein, and ERK decoy protein. Lane 7: ERK activity in cells co-expressing active M1-RasV12 fusion protein, and CAT fragment-containing ER localization control protein. […]
The localized ERK ligands were detected by immunostaining for the c-myc epitope tag.

NIH3T3 cells [2] = assay: Transformed foci formation (cell transformation) in NIH3T3 cells; format: cell-based, mouse; conditions: for Inhibition of cell transformation rates: H-RasV12 transformed cells; for Inhibition of cell transformation (foci formation): transformation by H-ras V12 or v-Src, constructs 1 μg each, FIG. 20
Method: Transformed foci formation was assayed in NIH3T3 cells transfected with H-ras V12 or v-Src (0.25 ng) plus constructs (1 μg each).
Additionally, experiments where inhibition of ERK signaling using ERK ligands of the invention was compared to siRNAs and a small molecule inhibitor. The commercial siRNAs were designed for target specificity to either the ERK1 (sc-29307) or ERK2 (sc-35335) isoforms (Santa Cruz Biotechnology, Inc.). The small molecule inhibitor, UO126 (1,4-diamino-2,3-dicyano-1,4-bis(2-aminophenylthio) butadiene), inhibits ERK signaling through its upstream effector, MEK, and ERK is the only known substrate for MEK. Assays performed were phenotypic assays. The effects of inhibiting ERK activity were measured by looking at functional properties of the cells associated with the MAPK signaling pathway, such as, cell proliferation and transformation. The MAPK signaling cascade in these experiments is initiated by transfection of the cells with a vector containing a constitutively active proto-oncogene, either H-RasV12 or v-Src, which eventually causes the cells to acquire enhanced growth rate (colony formation) and cell transformation rate (foci formation). Inhibition of ERK activity in this cascade will result in reduced rates of proliferation or transformation as measured by numbers of G418-resitant colonies or foci.
Next, the effect of ERK inhibition on cell transformation was investigated using two means of initiating signaling cascades that lead to this biological property (FIG. 20). The first method is the constitutively active Ras mutant used herein above. The second is a constitutively active nonreceptor tyrosine kinase v-Src mutant (pp 60v-src) that also leads to cell transformation, potentially by multiple signaling pathways including the Ras-Raf-MEK-ERK pathway. […] However, when transformation was initiated with v-Src, there was a difference in the inhibition specificity arising from use of SEQ ID NO:1 localized to the ER and PLA. […] That is, ER-localized SEQ ID NO:1 has a significant effect on transformation induced by H-RasV12 but little to no effect when transformation is induced by v-Src.

[3] = pancellular polyligand, vector 1 μg, colonies counted after 15 days, FIG. 18
[4] = SEQ ID NO:1 fused to localization signals, constructs 1 μg each, 15 days, FIG. 19

Row | Molecule | Inhibition of cell proliferation (G418-resistant colony formation) (NIH3T3 cells [1]; [3]) | Inhibition of cell transformation rates (NIH3T3 cells [2]) [%] | Inhibition of cell transformation (foci formation) (NIH3T3 cells [2]) | Inhibition of cell proliferation (G418-resistant colony formation) (NIH3T3 cells [1]; [4]) | further results
1 | N#CC(=C(N)Sc1ccccc1N)C(C#N)=C(N)Sc1ccccc1N [UO126, 1,4-diamino-2,3-dicyano-1,4-bis(2-aminophenylthio) butadiene, reference compound] |  |  |  |  | Inhibition of colony formation (NIH3T3 cells [1]; UO126 1 μM, colonies counted after 15 days, FIG. 18): very effective; Potency for MEK (MEK): ~70 nM
2 | B1 | partial inhibition | ~50 | inhibited cell transformation |  | ERK activity in the endoplasmic reticulum reduced (MBP phosphorylation) (ERK; Cos7 cells with ER-active ERK (M1-RasV12), SEQ ID NO:1 co-expressed as fusion with ER localization signal and c-Myc tag): approximately 60%; Inhibition of ERK activity as measured by phosphorylation of myelin basic protein (MBP) (ERK; ERK activated at plasma membrane, ER or cell wide by localized Ras overexpression): location-selective inhibition of ERK activity at the endoplasmic reticulum
3 | B2 |  |  |  | slight inhibition | 
4 | B3 |  | ~50 |  | greatest degree of inhibition | Decrease in transformation (NIH3T3 cells [2]; transformation initiated with v-Src): ~60%
5 | B4 |  |  |  | slight inhibition | 
6 | B5 | partial inhibition | ~50 | inhibited cell transformation |  | 
